Test [1] deals with Insulin receptor. As to the kind of experiment: SPR (BIACORE 3000), receptor on CM5 chip; Test 1. A general note: SPR reads the build-up and loss of mass on a sensor chip optically.
Test [2] addresses Insulin receptor. Briefly: SPR (BIACORE 3000), receptor on CM5 chip; Test 2.
Test [3] addresses Insulin receptor. Briefly: SPR (BIACORE 3000), receptor on CM5 chip; Test 3.
Test [4] concerns the target Insulin receptor. As to the kind of experiment: SPR (BIACORE 3000), receptor on CM5 chip; Test 4.
Test [5] deals with Insulin receptor. Briefly: SPR (BIACORE 3000), receptor on CM5 chip; Test 5.

Regarding Native human insulin (ligand), the koff (commonly the first-order rate constant of dissociation) turned out to be 0.00747 s⁻¹ in test [1]; 0.0101 s⁻¹ in test [2]; 0.0107 s⁻¹ in test [3]; 0.0124 s⁻¹ in test [4]; 0.0097 s⁻¹ in test [5]. Also, the kon (as a rule, the rate constant with which the complex forms) in test [1] turned out to be 221000 M⁻¹ s⁻¹; in test [2], 229000 M⁻¹ s⁻¹; in test [3], 176000 M⁻¹ s⁻¹; in test [4] it was 290000 M⁻¹ s⁻¹; in test [5], 200000 M⁻¹ s⁻¹. Further, the Kd (as a rule, the equilibrium constant for the complex coming apart) in test [3] came to 0.0635 µM.

For the origin of these results see US20180256731A1, “NOVEL INSULIN ANALOG AND USE THEREOF” (HANMI PHARM. CO., LTD, priority 2013, published 2018).
